Substitutions are numbered along the chain they refer to. Blank lines part the entries; values can stand above or below the binder they belong to.
Key:
[1] = molecular target: anti-VEGF/ANG2 antibody (IgG1 subclass with mutations P329G/L234A/L235A/I253A/H310A/H435A) (human) [IgG part: P01857]; assay: sandwich ELISA in serum; M1.3.17-Bi capture on SA plate; tracer anti-human kappa M1.7.10-Dig; analyte 0.3125 ng/mL
[2] = molecular target: anti-VEGF/ANG2 antibody (IgG1 subclass with mutations P329G/L234A/L235A/I253A/H310A/H435A) (human) [IgG part: P01857]; assay: sandwich ELISA in serum; M1.3.17-Bi capture on SA plate; tracer anti-human kappa M1.7.10-Dig; analyte 0 ng/mL (blank)
[3] = molecular target: anti-VEGF/ANG2 antibody (IgG1 subclass with mutations P329G/L234A/L235A/I253A/H310A/H435A) [IgG part: P01857]; assay: sandwich ELISA in serum; capture M1.3.17, tracer M1.7.24; anti-VEGF/ANG2 antibody 0 ng/mL (blank)
[4] = molecular target: cytokine (IL-2) antibody conjugate with the mutations P329G, L234A, L235A, I253A, H310A, and H435A; assay: sandwich ELISA in serum; capture anti-IL2 antibody, tracer M1.7.24; conjugate 156.25 ng/mL
[5] = molecular target: cytokine (IL-2) antibody conjugate with the mutations P329G, L234A, L235A, I253A, H310A, and H435A; assay: sandwich ELISA in serum; capture anti-IL2 antibody, tracer M1.7.24; conjugate 312.5 ng/mL
[6] = molecular target: anti-VEGF/ANG2 antibody (IgG1 subclass with mutations P329G/L234A/L235A/I253A/H310A/H435A) [IgG part: P01857]; assay: sandwich ELISA in serum; capture M1.7.10-Bi, tracer M1.7.24-Dig; anti-VEGF/ANG2 antibody 0.0390625 ng/mL
[7] = molecular target: anti-VEGF/ANG2 antibody (IgG1 subclass with mutations P329G/L234A/L235A/I253A/H310A/H435A) [IgG part: P01857]; assay: sandwich ELISA in serum; capture M1.7.10-Bi, tracer M1.7.24-Dig; anti-VEGF/ANG2 antibody 1.25 ng/mL
[8] = molecular target: cytokine (IL-2) antibody conjugate with the mutations P329G, L234A, L235A, I253A, H310A, and H435A; assay: sandwich ELISA in serum; capture anti-IL2 antibody, tracer M1.7.24; conjugate 39.0625 ng/mL
[9] = molecular target: cytokine (IL-2) antibody conjugate with the mutations P329G, L234A, L235A, I253A, H310A, and H435A; assay: sandwich ELISA in serum; capture anti-IL2 antibody, tracer M1.7.24; conjugate 1250 ng/mL

signal [OD405 nm] [1]: 0.181 OD405 nm | signal [OD405 nm] [2]: 0.074 OD405 nm | signal [OD405 nm] [3]: 0.175 OD405 nm
B1: anti-variant (human) Fc-region antibody M1.3.17 (antibody, V domains shown)
VH: EVKLLESGGGLVQPGGSLKLSCAASGIDFRRYWMNWVRQAPGKGLEWIGEIDPDSSTINYTPSLKDKFIISRDNAKNTMYLQMRKVRSEDTALYYCARPYDYGAWFAYWGQGTLVTVSA
VL: QAVVTQESALTTSPGETVTLTCRSTTGAVTTSNYANWVQEKPDHLFTGLIGGTNKRAPGVPARFSGSLIGDKAALTITGAQTEDEAIYFCALWYSDHWVFGGGTKLTVL

signal [OD405 nm] [4]: 0.253 OD405 nm | signal [OD405 nm] [5]: 0.451 OD405 nm | signal [OD405 nm] [6]: 0.072 OD405 nm | signal [OD405 nm] [7]: 0.847 OD405 nm | signal [OD405 nm] [8]: 0.101 OD405 nm | signal [OD405 nm] [9]: 1.46 OD405 nm
B2: anti-variant (human) Fc-region antibody M1.7.24 (antibody, V domains shown)
VH: B1 VH with I27F, R30S, D52T, M79L, R84I, A97V, Y108S
VL: B1 VL with T25S, D96N
